Assay [1] addresses T1, Avena sativa phytochrome A, full-length wild type (Avena sativa, UniProt P06593 1-1129, phycocyanobilin chromophore assembled (chromophore-binding site C322)).
T1 construct: Avena sativa (oat) phytochrome A, full-length gene AsPHYA; 1129 residues by the printed construct limits (66-1129aa); Used as Pr (far-red irradiated) and Pfr (red irradiated) forms; also called AsphyA; FL-AsphyA; source: phycocyanobilin added in vitro
T1 sequence (looked up): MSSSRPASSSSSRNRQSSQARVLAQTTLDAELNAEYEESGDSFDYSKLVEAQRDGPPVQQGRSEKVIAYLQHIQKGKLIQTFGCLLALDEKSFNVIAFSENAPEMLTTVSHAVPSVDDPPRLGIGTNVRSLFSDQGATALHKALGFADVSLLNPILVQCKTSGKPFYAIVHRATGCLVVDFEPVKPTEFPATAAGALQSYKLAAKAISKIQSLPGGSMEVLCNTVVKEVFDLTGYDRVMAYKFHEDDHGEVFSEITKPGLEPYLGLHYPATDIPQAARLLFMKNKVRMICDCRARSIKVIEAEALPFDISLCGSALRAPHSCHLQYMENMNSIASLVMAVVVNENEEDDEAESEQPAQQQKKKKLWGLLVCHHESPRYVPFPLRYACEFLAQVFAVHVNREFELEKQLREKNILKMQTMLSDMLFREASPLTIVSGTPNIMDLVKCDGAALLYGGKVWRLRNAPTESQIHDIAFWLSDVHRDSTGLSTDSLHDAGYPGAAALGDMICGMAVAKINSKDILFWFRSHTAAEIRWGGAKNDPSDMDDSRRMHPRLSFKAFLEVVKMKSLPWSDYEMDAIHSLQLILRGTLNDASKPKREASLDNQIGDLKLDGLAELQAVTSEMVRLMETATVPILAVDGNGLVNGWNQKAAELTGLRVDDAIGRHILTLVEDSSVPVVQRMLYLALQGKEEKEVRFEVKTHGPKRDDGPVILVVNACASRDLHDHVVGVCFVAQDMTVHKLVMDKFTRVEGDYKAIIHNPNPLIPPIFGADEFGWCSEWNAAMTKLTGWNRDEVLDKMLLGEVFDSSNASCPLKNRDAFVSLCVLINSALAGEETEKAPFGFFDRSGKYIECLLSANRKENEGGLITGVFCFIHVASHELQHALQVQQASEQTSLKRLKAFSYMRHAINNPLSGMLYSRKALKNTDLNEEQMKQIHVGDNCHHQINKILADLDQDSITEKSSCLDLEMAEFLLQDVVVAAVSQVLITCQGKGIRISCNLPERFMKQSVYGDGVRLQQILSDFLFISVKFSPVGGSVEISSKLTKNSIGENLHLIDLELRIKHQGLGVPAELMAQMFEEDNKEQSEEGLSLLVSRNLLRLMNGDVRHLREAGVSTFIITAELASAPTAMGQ
Description: pull-down; GST/strep-fused interacting protein (1.0 μg) held on glutathione resin, phytochrome (1.0 μg) in solution, Pr and Pfr forms both tested; 60 min at 4 °C in pull-down buffer (100 mM Tris-HCl pH 7.8, 1 mM EDTA, 150 mM NaCl, 100 μg/ml BSA); western blot with oat22 and anti-GST. As to conditions: both partners purified.

In assay [2] the target is T2, AsphyA K411L, full length (Avena sativa, UniProt P06593 1-1129, K411L, phycocyanobilin chromophore assembled).
T2 construct: Avena sativa phytochrome A, full length, with K411L; source: phycocyanobilin added in vitro
T2 sequence (looked up): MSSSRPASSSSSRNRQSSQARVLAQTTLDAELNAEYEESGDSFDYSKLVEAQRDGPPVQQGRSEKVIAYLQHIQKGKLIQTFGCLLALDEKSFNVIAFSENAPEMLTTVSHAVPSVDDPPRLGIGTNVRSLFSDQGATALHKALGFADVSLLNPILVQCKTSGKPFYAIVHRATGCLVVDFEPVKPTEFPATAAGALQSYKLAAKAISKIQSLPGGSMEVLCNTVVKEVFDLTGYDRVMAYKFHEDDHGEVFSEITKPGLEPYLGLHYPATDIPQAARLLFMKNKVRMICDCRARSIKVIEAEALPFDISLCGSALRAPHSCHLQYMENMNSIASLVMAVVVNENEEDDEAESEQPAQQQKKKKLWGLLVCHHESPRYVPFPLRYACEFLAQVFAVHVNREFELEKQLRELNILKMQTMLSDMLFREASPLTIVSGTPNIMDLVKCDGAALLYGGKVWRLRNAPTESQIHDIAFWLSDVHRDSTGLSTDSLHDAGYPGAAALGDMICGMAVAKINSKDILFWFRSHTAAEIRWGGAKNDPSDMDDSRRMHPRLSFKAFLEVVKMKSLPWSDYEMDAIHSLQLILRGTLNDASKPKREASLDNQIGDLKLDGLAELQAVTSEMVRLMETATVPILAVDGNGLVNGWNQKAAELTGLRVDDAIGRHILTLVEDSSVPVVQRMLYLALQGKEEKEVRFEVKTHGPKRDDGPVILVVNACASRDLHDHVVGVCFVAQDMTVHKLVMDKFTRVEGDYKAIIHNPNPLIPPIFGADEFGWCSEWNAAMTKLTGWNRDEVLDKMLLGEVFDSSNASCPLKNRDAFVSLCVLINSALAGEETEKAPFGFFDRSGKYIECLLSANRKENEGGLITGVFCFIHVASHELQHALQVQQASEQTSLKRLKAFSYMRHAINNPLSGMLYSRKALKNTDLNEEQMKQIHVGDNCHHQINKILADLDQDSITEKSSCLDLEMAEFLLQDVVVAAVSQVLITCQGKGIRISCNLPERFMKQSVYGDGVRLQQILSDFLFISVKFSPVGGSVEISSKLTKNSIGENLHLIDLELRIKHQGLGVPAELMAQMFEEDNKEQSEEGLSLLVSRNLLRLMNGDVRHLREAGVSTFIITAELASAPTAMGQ
The assay is described as above. As to conditions: both partners purified.

B1: GST/strep-fused FHL (natural protein, UniProt A8MR65 1-201, looked up)
chain: MDDADKSCSPSLDHSDINDPMIVAVESLDTSKKRKLHAEESDLLPLPKHFCSEHQASLVNSSCPSSVIDYAECSYAMENTKTSDEASSSASFTGPSLYMFKDSIYSTGSSSSGYAATSSIEQCFSKVDHKTQEDTQDFTHMEFIYHDSEFAVEDLQEVLNPVESYILSSARWSVSNQDSKEATTKPTIDQEFEQYFSTLMM
notes: FHL, which with FHY1 takes part in the nuclear localization of phyA; not shown: GST, N-terminal, kept
With B1, the binding result in assay [1] and in assay [2] was “binds” in each case.

B2: GST/strep-fused FHY1 (far-red elongated hypocotyl 1) (natural protein, UniProt Q8S4Q6 1-202, looked up)
chain: MPEVEVDNNNEKPSEINSFHHMIISSSKNVLKMEEVEVSKKRKFQTDQSDELSLLPLSKHTCFANVACSENTNGNSEIDTEYSMSSYVNSTTSMECNNDIEMKEESSGSCGEDKMISFESHLDYIYGTQNLEDFSEKVIENILYLDEQEEEEEDAKGCSSNAAKFVLSSGRWTVNQDDSTLHETKKPTIDQEFEQYFSTLML
notes: FHY1 (far-red elongated hypocotyl 1); not shown: GST, N-terminal, kept
For the molecule B2, the binding result in assay [1] and in assay [2] was “binds” in each case.

B3: GST/strep-fused PIF3 (natural protein, UniProt O80536 1-524, looked up)
chain: MPLFELFRLTKAKLESAQDRNPSPPVDEVVELVWENGQISTQSQSSRSRNIPPPQANSSRAREIGNGSKTTMVDEIPMSVPSLMTGLSQDDDFVPWLNHHPSLDGYCSDFLRDVSSPVTVNEQESDMAVNQTAFPLFQRRKDGNESAPAASSSQYNGFQSHSLYGSDRARDLPSQQTNPDRFTQTQEPLITSNKPSLVNFSHFLRPATFAKTTNNNLHDTKEKSPQSPPNVFQTRVLGAKDSEDKVLNESVASATPKDNQKACLISEDSCRKDQESEKAVVCSSVGSGNSLDGPSESPSLSLKRKHSNIQDIDCHSEDVEEESGDGRKEAGPSRTGLGSKRSRSAEVHNLSERRRRDRINEKMRALQELIPNCNKVDKASMLDEAIEYLKSLQLQVQIMSMASGYYLPPAVMFPPGMGHYPAAAAAMAMGMGMPYAMGLPDLSRGGSSVNHGPQFQVSGMQQQPVAMGIPRVSGGGIFAGSSTIGNGSTRDLSGSKDQTTTNNNSNLKPIKRKQGSSDQFCGSS
notes: Probably Arabidopsis PIF3, as PIF1 and PIF4 are called Arabidopsis; not shown: GST, N-terminal, kept
Regarding B3, the binding result in assay [1] and in assay [2] was “binds” each time.

The values are drawn from paper PMC4869175, “Evidence that phytochrome functions as a protein kinase in plant light signalling” (Nature Communications, 2016).
